Values quoted from earlier work, collected in PMC3600088.

Target: Protective antigen (PA) (Bacillus anthracis) (UniProt P13423)

In the case of CMG2 (from UniProt P58335), the Kd is given as > 0.17 nM.
